Legend:
Type in all cases: in vivo
[1] = test system: cardiac and hepatic stem cell markers; test: Intravenous sPDNF into naïve mice, stem cell markers by real time PCR; conditions: independently of TLR signaling
Method: FIG. 2A is a graph showing stem cell marker expression in mice administered sPDNF. One set of three wild type C57BL/6 mice received intravenous (IV) PBS without (PBS) or with sPDNF (2 mg/kg) at 0, 3 and 24 hours (sPDNF 1d), and a second set IV sPDNF (2 mg/kg) for 6 days (sPDNF 6d). Mice were sacrificed 3 hr post injection and the indicated stem cells markers were quantified in the ventricles by real time PCR, and normalized to HPRT; *, p<0.05, **, p<0.001, ***, p<0.0001; SCF, stem cell factor, ns, not significant. FIG. 2B is a graph showing stem cell marker expression in MyD88^−/− mice administered sPDNF. TLR-deficient MyD88^−/− mice (C57BL/6 background) (2/group) were injected IV with a single dose of sPDNF (2 mg/kg), sacrificed at 3 hours post-injection, and the indicated cardiac stem cell markers assessed by qPCR. […] Cardiac Sca-1 and SCF transcripts were quantified by qPCR; **, P<0.001; ***, P<0.0005. FIG. 2D is a graph showing quantitation of Sca-1 expression in various organs of mice administered sPDNF. C57BL/6 mice (3 per group), average of two experiments) were injected IV with sPDNF at 4 mg/kg body weight or PBS, sacrificed 3 hours later, and Sca-1 mRNA quantified by qPCR in the liver, heart, colon and bone marrow (*, P<0.05, **, P<0.001; ns, not significant; dotted line represents Sca-1 mRNA of vehicle-treated mice set at 1.0, data are representative of 2 experiments. […]

IL1-Ra, TSG-6 and COX-2 = test: Intravenous sPDNF into naïve mice, anti-inflammatory factor transcripts in heart and liver
Method: FIG. 2A is a graph showing stem cell marker expression in mice administered sPDNF. One set of three wild type C57BL/6 mice received intravenous (IV) PBS without (PBS) or with sPDNF (2 mg/kg) at 0, 3 and 24 hours (sPDNF 1d), and a second set IV sPDNF (2 mg/kg) for 6 days (sPDNF 6d). Mice were sacrificed 3 hr post injection and the indicated stem cells markers were quantified in the ventricles by real time PCR, and normalized to HPRT; *, p<0.05, **, p<0.001, ***, p<0.0001; SCF, stem cell factor, ns, not significant. FIG. 2B is a graph showing stem cell marker expression in MyD88^−/− mice administered sPDNF. TLR-deficient MyD88^−/− mice (C57BL/6 background) (2/group) were injected IV with a single dose of sPDNF (2 mg/kg), sacrificed at 3 hours post-injection, and the indicated cardiac stem cell markers assessed by qPCR. Data were normalized to HPRT and made relative to vehicle-treated controls (set at 1.0 and represented by the dashed line); **, P<0.01; and ***, P<0.005. FIG. 2C is a graph showing stem cell marker expression in mice administered sPDNF at various time points after injection. […] Cardiac Sca-1 and SCF transcripts were quantified by qPCR; **, P<0.001; ***, P<0.0005. FIG. 2D is a graph showing quantitation of Sca-1 expression in various organs of mice administered sPDNF. C57BL/6 mice (3 per group), average of two experiments) were injected IV with sPDNF at 4 mg/kg body weight or PBS, sacrificed 3 hours later, and Sca-1 mRNA quantified by qPCR in the liver, heart, colon and bone marrow (*, P<0.05, **, P<0.001; ns, not significant; dotted line represents Sca-1 mRNA of vehicle-treated mice set at 1.0, data are representative of 2 experiments. […] FIG. 2F is a graph showing quantitation of expression of inflammatory markers in mice administered sPDNF. Wild type and naïve mice (5 per group) were injected IV with a single dose of sPDNF (4 mg/kg), sacrificed 3 hr post-injection, and the L-1Ra, TSG-6, COX-2, and IDO transcripts quantified in the heart and liver. […]

[2] = test system: heart of mice with chronic Chagas cardiomyopathy (CCC); test: Chronic Chagas cardiomyopathy (CCC) mice, heart histology (H&E, Masson-Trichrome); conditions: for cardiac fibrosis: IV, Masson-Trichrome
Method: FIG. 3A depicts in vivo experimental design, groups, treatment and timeline for the infective and anti-inflammatory effects of sPDNF. C57BL/6 mice (7 per group) were injected intraperitoneally with T cruzi Colombian strain (8×10^2 per mouse) and, four months later, intravenously with PBS (vehicle) or sPDNF (1 mg/kg body weight) at 0, 3, and 24 hours, weekly for 3 weeks. Mice were sacrificed 50 days after the first set of IV sPDNF treatment. FIG. 3B are images of heart (ventricle) paraffin-embedded, sectioned, and stained with H&E. Arrows indicate foci of inflammatory infiltrates, which were abundant in sham-treated (IV PBS) CCC mice and rare in IV sPDNF-treated CCC mice. Similar histology was found in other tissue sections and in a distinct set of sPDNF-treated and PBS-sham mice.
Same mice and experimental protocol as described in FIG. 3A were used except that paraffin-embedded heart sections were stained with Masson-Trichrome to visualize collagen in fibrotic areas (blue) and viable muscle fibers (red). FIGS. 4A and 4B display sections of atria of mice with CCC administered IV PBS or IV sPDNF, respectively. FIG. 4C is a graph showing the amount of cardiac fibrosis, as determined using ImageJ software (NIH) in four distinct sections of atria and ventricles. Relative cardiac fibrosis is defined as the ratio of blue pixels to total pixels (blue+red) normalized to corresponding areas of the heart of uninfected mice set at 1.0 (dotted line); **, P<0.01, ns, not significant relative uninfected hearts.

[3] = Toxicity in RAG-2-/- deficient mice; conditions: highly susceptible to endotoxin shock

B1: sPDNF: N-terminal short-form of T cruzi PDNF that contains Trk-binding sites, recombinant; amino acids 1-588 of SEQ ID NO: 2; JR-100 is the commercial name (protein, listed as Trypanosoma cruzi)
chain: MGKTVVVASRMFWLMFFVPLLLAICPSEPAYALAPGSSRVELFKRKNSTVPFEDKAGKVTERVVHSFRLPALVNVDGVMVAIADARYDTSNDNSLIDTVAKYSVDDGETWETQIAIKNSRVSSVSRVVDPTVIVKGNKLYVLVGSYYSSRSYWSSHGDARDWDILLAVGEVTKSTAGGKITASIKWGSPVSLKKFFPAEMEGMHTNQFLGGAGVAIVASNGNLVYPVQVTNKKKQVFSKIFYSEDDGKTWKFGKGRSDFGCSEPVALEWEGKLIINTRVDWKRRLVYESSDMEKPWVEAVGTVSRVWGPSPKSNQPGSQSSFTAVTIEGMRVMLFTHPLNFKGRWLRDRLNLWLTDNQRIYNVGQVSIGDENSAYSSVLYKDDKLYCLHEINTDEVYSLVFARLVGELRIIKSVLRSWKNWDSHLSSICTPADPAASSSESGCGPAVTTVGLVGFLSGNASQNVWEDAYRCVNASTANAERVRNGLKFAGVGGGALWPVSQQGQNQRYRFANHAFTLVASVTIHEAPRAASPLLGASLDSSGGKKLLGLSYDEKHQWQPIYGSTPVTPTGSWETGKRYHLVLTMANKI
expression of cardiac and hepatic stem cell markers [1]: increased expression | expression of COX-2 (IL1-Ra, TSG-6 and COX-2): increased expression | expression of IL1-Ra (IL1-Ra, TSG-6 and COX-2): increased expression | expression of TSG-6 (IL1-Ra, TSG-6 and COX-2): increased expression | inflammatory infiltrates in the heart ([2]; IV 1 mg/kg at 0, 3, 24 hours weekly for 3 weeks, 1 mg/kg): dramatic reduction and rare | cardiac fibrosis [2]: reduced | cardiac fibrosis ([2]; listed as PDNF fragment): nearly eliminated | toxicity [3]: non-toxic

— US9744220B2, “Compositions and methods for treating inflammatory diseases” (priority 2013, dated 2017)
